Publication PMC4277816 (Chemical communications (Cambridge, England), 2014)
Square brackets hold non-standard residues; d marks the D form. Peptide text beside a SMILES is read from it. * marks the point of attachment. X2 = O=C(O)C(CCCCN*)N1CCCN2CCN(CCCN(CP(=O)(O)O)CC2)CC1; PEG4 = NCCOCCOCCOCCOCCC(=O)O; X1 = O=C(/C=C/c1ccccc1)*

Experiment: serum stability of 64Cu-labelled cFlFlF peptide–chelate conjugates
Assay type: in vitro ADME
Conditions: compared with the 64Cu–CB-TE1A1P peptide, result in words (Fig. S2b, ESI)

Which serum stability does the source give for `CC(C)C[C@@H](NC(=O)[C@H](Cc1ccccc1)NC(=O)[C@@H](CC(C)C)NC(=O)[C@H](Cc1ccccc1)NC(=O)/C=C/c1ccccc1)C(=O)N[C@@H](Cc1ccccc1)C(=O)NCCOCCOCCOCCOCCC(=O)NCCCCC(C(=O)O)N1CCCN2CCN(CCCN(CP(=O)(O)O)CC2)CC1` (stereo partly drawn) [64Cu–CB-TE1K1P peptide, metal not drawn] (X1-F[dL]F[dL]F[PEG4]-X2; N-terminus assumed) here?
Its serum stability is “better serum stability”.
